Values of other authors as cited in article PMC3648593.

Biological target: Met (Homo sapiens) (UniProt P08581)
Sequence of UniProt P08581 (P08581 25-932): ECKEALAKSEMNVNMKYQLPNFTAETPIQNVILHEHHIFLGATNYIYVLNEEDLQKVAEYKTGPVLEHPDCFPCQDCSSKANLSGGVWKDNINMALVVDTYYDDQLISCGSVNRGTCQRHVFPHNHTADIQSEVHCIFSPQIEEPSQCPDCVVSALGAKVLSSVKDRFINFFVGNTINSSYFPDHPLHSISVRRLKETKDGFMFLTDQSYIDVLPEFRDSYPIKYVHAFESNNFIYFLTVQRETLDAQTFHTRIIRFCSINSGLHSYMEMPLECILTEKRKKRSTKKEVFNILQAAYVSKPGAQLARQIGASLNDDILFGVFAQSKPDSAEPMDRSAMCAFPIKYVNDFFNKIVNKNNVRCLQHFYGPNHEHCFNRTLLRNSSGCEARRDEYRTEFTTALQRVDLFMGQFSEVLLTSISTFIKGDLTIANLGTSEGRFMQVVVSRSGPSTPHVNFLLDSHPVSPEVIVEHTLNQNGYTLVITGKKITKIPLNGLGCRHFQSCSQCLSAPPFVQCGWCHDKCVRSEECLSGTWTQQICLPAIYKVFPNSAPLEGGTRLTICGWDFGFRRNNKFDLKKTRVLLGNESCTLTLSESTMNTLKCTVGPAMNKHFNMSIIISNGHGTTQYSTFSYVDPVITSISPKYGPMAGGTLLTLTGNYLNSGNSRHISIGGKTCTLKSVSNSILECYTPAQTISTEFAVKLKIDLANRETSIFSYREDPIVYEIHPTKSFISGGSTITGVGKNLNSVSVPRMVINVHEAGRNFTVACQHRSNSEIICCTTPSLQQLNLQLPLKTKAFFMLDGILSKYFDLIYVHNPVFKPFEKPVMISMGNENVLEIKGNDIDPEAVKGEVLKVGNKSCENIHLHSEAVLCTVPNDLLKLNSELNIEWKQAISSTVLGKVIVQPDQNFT

Kd: 2 nM
Substance: Decorin (from UniProt P07585)
